Test results published in publication PMC3988258.

Biological target: GFP-NAIP2 (mouse) (UniProt Q9QUK4)
Assay: co-IP

UniProt Q9QUK4, sequence (Q9QUK4 whole entry): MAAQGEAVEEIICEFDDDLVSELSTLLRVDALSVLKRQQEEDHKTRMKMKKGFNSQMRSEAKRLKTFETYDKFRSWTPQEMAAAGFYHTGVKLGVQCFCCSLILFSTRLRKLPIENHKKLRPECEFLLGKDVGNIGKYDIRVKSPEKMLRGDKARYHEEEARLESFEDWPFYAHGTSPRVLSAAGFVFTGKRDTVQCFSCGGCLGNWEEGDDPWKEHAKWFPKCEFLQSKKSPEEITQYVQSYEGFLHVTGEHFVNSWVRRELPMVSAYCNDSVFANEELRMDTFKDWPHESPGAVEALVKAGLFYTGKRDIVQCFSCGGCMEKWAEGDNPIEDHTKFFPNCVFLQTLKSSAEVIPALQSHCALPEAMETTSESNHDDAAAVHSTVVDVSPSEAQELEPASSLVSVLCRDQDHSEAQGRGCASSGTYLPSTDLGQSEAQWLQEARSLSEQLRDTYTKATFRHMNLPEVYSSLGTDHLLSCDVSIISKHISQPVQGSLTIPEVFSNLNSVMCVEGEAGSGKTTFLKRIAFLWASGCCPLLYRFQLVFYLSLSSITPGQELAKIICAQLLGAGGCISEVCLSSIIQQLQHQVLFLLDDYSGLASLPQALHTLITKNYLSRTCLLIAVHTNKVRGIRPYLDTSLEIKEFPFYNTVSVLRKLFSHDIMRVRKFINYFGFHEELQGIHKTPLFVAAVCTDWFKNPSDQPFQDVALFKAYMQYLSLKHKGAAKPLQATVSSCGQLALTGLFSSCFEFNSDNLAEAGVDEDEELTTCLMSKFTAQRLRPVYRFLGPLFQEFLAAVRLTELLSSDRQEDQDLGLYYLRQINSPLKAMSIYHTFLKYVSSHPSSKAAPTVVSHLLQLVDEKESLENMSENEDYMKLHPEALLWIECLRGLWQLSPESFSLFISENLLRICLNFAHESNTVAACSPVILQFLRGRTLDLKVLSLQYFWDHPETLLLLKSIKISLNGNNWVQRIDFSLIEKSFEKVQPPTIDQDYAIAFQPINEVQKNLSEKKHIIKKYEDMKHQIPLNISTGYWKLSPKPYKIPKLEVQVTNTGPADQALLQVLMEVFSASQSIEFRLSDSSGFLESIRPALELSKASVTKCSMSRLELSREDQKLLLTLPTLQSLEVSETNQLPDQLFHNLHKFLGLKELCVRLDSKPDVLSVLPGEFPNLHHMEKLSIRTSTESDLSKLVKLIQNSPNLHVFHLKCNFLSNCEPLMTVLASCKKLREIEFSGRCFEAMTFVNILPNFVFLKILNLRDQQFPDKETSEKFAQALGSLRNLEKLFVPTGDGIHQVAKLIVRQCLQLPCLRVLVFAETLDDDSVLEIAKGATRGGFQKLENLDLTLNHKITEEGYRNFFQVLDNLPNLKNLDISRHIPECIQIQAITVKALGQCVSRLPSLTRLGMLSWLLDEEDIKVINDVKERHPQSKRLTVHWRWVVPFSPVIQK

In the case of “GFP-PrgJ (from UniProt P41785 1-101) (ligand)”, the stoichiometry N (ligand per NAIP) is reported as 1.
